The values below come from patent US20160355588A1 (Zymeworks, published 2016).

Read-outs that look alike come from different tables or passages of the source.

Holding throughout (experiment): cell-based or functional assay
The target in assay [1] is T1, CD19 on Raji B cells (human, UniProt P15391 20-556).
T1 sequence (looked up): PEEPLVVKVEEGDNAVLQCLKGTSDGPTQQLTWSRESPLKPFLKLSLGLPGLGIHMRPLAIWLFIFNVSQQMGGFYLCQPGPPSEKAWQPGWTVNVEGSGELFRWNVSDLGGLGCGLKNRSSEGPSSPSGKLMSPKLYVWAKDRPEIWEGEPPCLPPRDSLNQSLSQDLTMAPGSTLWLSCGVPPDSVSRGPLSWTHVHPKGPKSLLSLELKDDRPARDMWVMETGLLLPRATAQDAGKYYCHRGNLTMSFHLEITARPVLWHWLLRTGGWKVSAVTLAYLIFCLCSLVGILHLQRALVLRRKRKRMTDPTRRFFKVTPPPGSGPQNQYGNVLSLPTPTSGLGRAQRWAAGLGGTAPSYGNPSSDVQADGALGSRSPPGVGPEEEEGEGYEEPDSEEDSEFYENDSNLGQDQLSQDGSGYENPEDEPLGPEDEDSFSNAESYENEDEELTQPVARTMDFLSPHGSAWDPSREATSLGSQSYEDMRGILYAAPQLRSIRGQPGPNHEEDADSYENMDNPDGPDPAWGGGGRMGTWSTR

The target of assay [2] is T2, CD20 on Raji B cells (human, UniProt P11836 1-297).
T2 sequence (looked up): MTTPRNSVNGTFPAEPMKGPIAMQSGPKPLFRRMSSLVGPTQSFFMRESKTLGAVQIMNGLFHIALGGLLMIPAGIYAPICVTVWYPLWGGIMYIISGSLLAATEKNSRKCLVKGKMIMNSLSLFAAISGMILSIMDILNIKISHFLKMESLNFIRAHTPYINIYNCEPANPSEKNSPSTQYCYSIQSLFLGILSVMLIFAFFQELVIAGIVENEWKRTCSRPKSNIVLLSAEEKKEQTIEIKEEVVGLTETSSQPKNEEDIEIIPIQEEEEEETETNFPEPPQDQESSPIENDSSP

In assay [3] the target is T1, CD19 on Raji B cells. This is another data set of the same source.
Assay [4] concerns the target T2, CD20 on Raji B cells. The source holds these as a separate data set.

B1: v5852 (bispecific antibody, human IgG1, kappa, L234A L235A)
heavy: QVQLVQSGGGVVQPGRSLRLSCKASGYTFTRYTMHWVRQAPGKGLEWIGYINPSRGYTNYNQKVKDRFTISRDNSKNTAFLQMDSLRPEDTGVYFCARYYDDHYCLDYWGQGTPVTVSSASTKGPSVFPLAPSSKSTSGGTAALGCLVKDYFPEPVTVSWNSGALTSGVHTFPAVLQSSGLYSLSSVVTVPSSSLGTQTYICNVNHKPSNTKVDKKVEPKSCDKTHTCPPCPAPELLGGPSVFLFPPKPKDTLMISRTPEVTCVVVDVSHEDPEVKFNWYVDGVEVHNAKTKPREEQYNSTYRVVSVLTVLHQDWLNGKEYKCKVSNKALPAPIEKTISKAKGQPREPQVYVYPPSRDELTKNQVSLTCLVKGFYPSDIAVEWESNGQPENNYKTTPPVLDSDGSFALVSKLTVDKSRWQQGNVFSCSVMHEALHNHYTQKSLSLSPGK
chain: EVQLVESGGGLVKPGGSLKLSCAASGYTFTSYVMHWVRQAPGKGLEWIGYINPYNDGTKYNEKFQGRVTISSDKSISTAYMELSSLRSEDTAMYYCARGTYYYGTRVFDYWGQGTLVTVSSGGGGSGGGGSGGGGSDIVMTQSPATLSLSPGERATLSCRSSKSLQNVNGNTYLYWFQQKPGQSPQLLIYRMSNLNSGVPDRFSGSGSGTEFTLTISSLEPEDFAVYYCMQHLEYPITFGAGTKLEIKAAEPKSSDKTHTCPPCPAPEAAGGPSVFLFPPKPKDTLMISRTPEVTCVVVSVSHEDPEVKFNWYVDGVEVHNAKTKPREEQYNSTYRVVSVLTVLHQDWLNGKEYKCKVSNKALPAPIEKTISKAKGQPREPQVYVLPPSRDELTKNQVSLLCLVKGFYPSDIAVEWESNGQPENNYLTWPPVLDSDGSFFLYSKLTVDKSRWQQGNVFSCSVMHEALHNHYTQKSLSLSPGK
light: DIQMTQSPSSLSASVGDRVTITCSASSSVSYMNWYQQTPGKAPKRWIYDTSKLASGVPSRFSGSGSGTDYTFTISSLQPEDIATYYCQQWSSNPFTFGQGTKLQITRTVAAPSVFIFPPSDEQLKSGTASVVCLLNNFYPREAKVQWKVDNALQSGNSQESVTEQDSKDSTYSLSSTLTLSKADYEKHKVYACEVTHQGLSSPVTKSFNRGEC
For B1, in assay [1], the “% Bridging Jurkat/Raji (whole cell FACS T:B bridging; CD3 on Jurkat bridged to the B cell antigen on Raji)” value (from here on “% Bridging Jurkat/Raji”) was 30.4%.

B2: v6325 (bispecific antibody, human IgG1, kappa)
heavy: B1 heavy
chain: not shown
light: B1 light
Take B2: the “% Bridging Jurkat/Raji” value in assay [2] is 15.7%.

B3: v5851 (bispecific antibody)
chain: not shown
heavy: not shown
light: DIVMTQSPATLSLSPGERATLSCRSSKSLQNVNGNTYLYWFQQKPGQSPQLLIYRMSNLNSGVPDRFSGSGSGTEFTLTISSLEPEDFAVYYCMQHLEYPITFGAGTKLEIKRTVAAPSVFIFPPSDEQLKSGTASVVCLLNNFYPREAKVQWKVDNALQSGNSQESVTEQDSKDSTYSLSSTLTLSKADYEKHKVYACEVTHQGLSSPVTKSFNRGEC
For B3, the “% Bridging Jurkat/Raji” value in assay [3] turned out to be 23.2%.

B4: v1821 (bispecific antibody, human IgG1, kappa)
heavy 1: QVQLVQSGGGVVQPGRSLRLSCKASGYTFTSYTMHWVRQAPGKGLEWIGYINPSSGYTKYNQKFKDRFTISADKSKSTAFLQMDSLRPEDTGVYFCARWQDYDVYFDYWGQGTPVTVSSASTKGPSVFPLAPSSKSTSGGTAALGCLVKDYFPEPVTVSWNSGALTSGVHTFPAVLQSSGLYSLSSVVTVPSSSLGTQTYICNVNHKPSNTKVDKKVEPKSCDKTHTCPPCPAPELLGGPSVFLFPPKPKDTLMISRTPEVTCVVVDVSHEDPEVKFNWYVDGVEVHNAKTKPREEQYNSTYRVVSVLTVLHQDWLNGKEYKCKVSNKALPAPIEKTISKAKGQPREPQVYVYPPSRDELTKNQVSLTCLVKGFYPSDIAVEWESNGQPENNYKTTPPVLDSDGSFALVSKLTVDKSRWQQGNVFSCSVMHEALHNHYTQKSLSLSPGK
heavy 2: not shown
light: QIVLSQSPAILSASPGEKVTMTCRASSSVSYIHWFQQKPGSSPKPWIYATSNLASGVPVRFSGSGSGTSYSLTISRVEAEDAATYYCQQWTSNPPTFGGGTKLEIKRTVAAPSVFIFPPSDEQLKSGTASVVCLLNNFYPREAKVQWKVDNALQSGNSQESVTEQDSKDSTYSLSSTLTLSKADYEKHKVYACEVTHQGLSSPVTKSFNRGEC
For the molecule B4, the “% Bridging Jurkat/Raji” value in assay [4] came to 7.3%.
